# Results taken from the supplement of paper PMC7877785.
# ± gives the uncertainty stated by the source.
# Assay: self-splicing fitness, log relative to wild type (ln ratio); higher = more splicing; Tetrahymena group I intron in knt gene, E. coli kanamycin selection, DiMSum; sequences stand for … in CUCUCU…GGAGGGAAAAGUUAUCAGGCAUGCACCUGGUAGCUAGUCUUUAAACCAAUAGAUUGCAUCGGUUUAAAAGGCAAGACCGUCAAAUUGCGGGAAAGGGGUCAACAGCCGUUCAGUACCAAGUCUCAGGGGAAACUUUGAGAUGGCCUUGCAAAGGGUAUGGUAAUAAGCUGACGGACAUGGUCCUAACCACGCAGCCAAGUCCUAAGUCAACAGAUCUUCUGUUGAUAUGGAUGCAGUUCACAGACUAAAUGUCGGUCGGGGAAGAUGUAUUCUUCUCAUAAGAUAUAGUCGGACCUCUCCUUAAUGGGAGCUAGCGGAUGAAGUGAUGCAACACUGGAGCCGCUGGGAACUAAUUUGUAUGCGAAAGUAUAUUGAUUAGUUUUGGAGUACUCGUGGUCG
# Summary of the method: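 Colonies from six replicate transformations of E. coli BL21(DE3) were pooled and amplicon-sequenced on an Illumina HiSeq 2500. The library placed an intron with all eight P1ex-region nucleotides randomised inside the knt kanamycin-resistance gene on pET-22b(+), and cells grew overnight at 37°C or 30°C on LB agar with or without 25 μg/mL kanamycin (plus 100 μg/mL carbenicillin, 50 μM IPTG, 0.2% rhamnose). Fitness is the DiMSum error-weighted combination of wild-type-normalised replicate fold changes, kanamycin versus none.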
Sequence,self-splicing fitness (ln) (30 °C),self-splicing fitness (ln) (37 °C)
AAAUAGCAAUAUUACGUCGA,-1.78 ± 0.078,-0.255 ± 0.076
AAAUAGCAAUAUUACGUUAC,-3.44 ± 0.22,-2.77 ± 0.27
AACAAGCAAUAUUACGAAAG,-2.14 ± 0.14,-2.73 ± 0.22
AACAAGCAAUAUUACGAAUC,-3.22 ± 0.17,-2.24 ± 0.13
AACAAGCAAUAUUACGACAC,-1.66 ± 0.085,-0.431 ± 0.097
AACAAGCAAUAUUACGACCA,-0.617 ± 0.086,-0.382 ± 0.12
AACAAGCAAUAUUACGAGCU,-0.919 ± 0.056,-0.357 ± 0.073
AACAAGCAAUAUUACGAUUU,0.129 ± 0.056,0.672 ± 0.077
AACAAGCAAUAUUACGCGAA,-1.78 ± 0.073,-0.546 ± 0.084
AACAAGCAAUAUUACGCUAC,,-3.21 ± 0.4
AACAAGCAAUAUUACGCUCA,-0.608 ± 0.054,-0.27 ± 0.071
AACAAGCAAUAUUACGGCGU,-0.173 ± 0.063,0.163 ± 0.071
AACAAGCAAUAUUACGGGGA,-3.21 ± 0.14,-0.987 ± 0.087
AACAAGCAAUAUUACGGUCU,-0.114 ± 0.037,0.456 ± 0.054
AACAAGCAAUAUUACGUAUU,-1.77 ± 0.079,-0.983 ± 0.092
AACAAGCAAUAUUACGUCGU,-2.18 ± 0.068,-0.677 ± 0.067
AACAAGCAAUAUUACGUUAC,-3.54 ± 0.11,-3.01 ± 0.18
AACCAGCAAUAUUACGAACC,-0.246 ± 0.13,0.00425 ± 0.19
AACCAGCAAUAUUACGACGU,-0.111 ± 0.046,0.409 ± 0.06
AACCAGCAAUAUUACGAGAA,-1.71 ± 0.14,-1.02 ± 0.13
AACCAGCAAUAUUACGCAAG,-2.54 ± 0.1,-1 ± 0.1
AACCAGCAAUAUUACGCACA,-0.335 ± 0.054,0.326 ± 0.072
AACCAGCAAUAUUACGCCUG,-1.8 ± 0.066,-0.745 ± 0.087
AACCAGCAAUAUUACGCGAA,-1.11 ± 0.06,-0.99 ± 0.076
AACCAGCAAUAUUACGCGCG,-0.385 ± 0.082,0.256 ± 0.11
AACCAGCAAUAUUACGCUAA,-1.36 ± 0.068,-0.61 ± 0.07

Sequence,self-splicing fitness (ln) (30 °C),self-splicing fitness (ln) (37 °C)
AACCAGCAAUAUUACGCUAC,-2.63 ± 0.14,-2.05 ± 0.13
AACCAGCAAUAUUACGCUAU,-2.11 ± 0.094,-0.398 ± 0.093
AACCAGCAAUAUUACGGCAC,-0.615 ± 0.055,-0.257 ± 0.079
AACCAGCAAUAUUACGGGGU,-3.73 ± 0.14,-2.88 ± 0.16
AACCAGCAAUAUUACGGGUU,-2.89 ± 0.078,-3.19 ± 0.13
AACCAGCAAUAUUACGGUCG,-0.366 ± 0.049,0.214 ± 0.07
AACCAGCAAUAUUACGUAAA,-1.13 ± 0.076,-0.76 ± 0.084
AACCAGCAAUAUUACGUCAC,-3.92 ± 0.13,-2.66 ± 0.13
AACCAGCAAUAUUACGUGCU,-3.52 ± 0.16,-1.94 ± 0.15
AACCAGCAAUAUUACGUUAC,-2.93 ± 0.14,-2.52 ± 0.17
AACGAGCAAUAUUACGACCA,-2.23 ± 0.18,-1.53 ± 0.19
AACGAGCAAUAUUACGACGA,-2.08 ± 0.17,-0.282 ± 0.14
AACGAGCAAUAUUACGAGGG,-3.03 ± 0.36,-2.35 ± 0.29
AACGAGCAAUAUUACGCACU,-1.23 ± 0.11,-0.611 ± 0.11
AACGAGCAAUAUUACGCCAU,-2.91 ± 0.27,-1.52 ± 0.27
AACGAGCAAUAUUACGCCUG,-3.77 ± 0.32,
AACGAGCAAUAUUACGCGGG,-3.64 ± 0.42,-2.32 ± 0.22
AACGAGCAAUAUUACGCUCA,-1.83 ± 0.12,-0.666 ± 0.13
AACGAGCAAUAUUACGCUUC,-3.1 ± 0.25,-1.7 ± 0.3
AACGAGCAAUAUUACGCUUU,-3.9 ± 0.17,-2.31 ± 0.14
AACGAGCAAUAUUACGGACG,-2.19 ± 0.2,-1.05 ± 0.23
AACGAGCAAUAUUACGGACU,-1.88 ± 0.13,-0.603 ± 0.21
AACGAGCAAUAUUACGGGCA,-2.92 ± 0.24,-2.38 ± 0.24
AACGAGCAAUAUUACGGGCG,-3.07 ± 0.15,-1.11 ± 0.19
AACGAGCAAUAUUACGGGUG,-3.4 ± 0.17,-2.34 ± 0.2
AACGAGCAAUAUUACGGUCU,-2.03 ± 0.093,-0.898 ± 0.1

Sequence,self-splicing fitness (ln) (30 °C),self-splicing fitness (ln) (37 °C)
AACGAGCAAUAUUACGUCUG,-3.17 ± 0.2,-1.63 ± 0.16
AACGAGCAAUAUUACGUGAG,-3.58 ± 0.17,-0.98 ± 0.13
AACGAGCAAUAUUACGUGGC,-3.85 ± 0.3,-2.94 ± 0.27
AACGAGCAAUAUUACGUUGU,-3.8 ± 0.098,-3.3 ± 0.13
AACUAGCAAUAUUACGAAGA,-2.62 ± 0.14,-1.05 ± 0.12
AACUAGCAAUAUUACGAAUA,-2.71 ± 0.2,-1.6 ± 0.13
AACUAGCAAUAUUACGACAC,-1.04 ± 0.085,-0.404 ± 0.11
AACUAGCAAUAUUACGACUG,-0.606 ± 0.1,-0.989 ± 0.13
AACUAGCAAUAUUACGAGUC,-3.83 ± 0.33,-1.77 ± 0.19
AACUAGCAAUAUUACGAGUG,-0.165 ± 0.059,-0.29 ± 0.074
AACUAGCAAUAUUACGAGUU,-3.44 ± 0.24,-1.89 ± 0.22
AACUAGCAAUAUUACGAUCA,-0.213 ± 0.099,-0.0939 ± 0.11
AACUAGCAAUAUUACGCACG,-0.871 ± 0.098,-0.361 ± 0.12
AACUAGCAAUAUUACGCAUA,-1.64 ± 0.15,-1.1 ± 0.14
AACUAGCAAUAUUACGCGAC,-2.49 ± 0.27,
AACUAGCAAUAUUACGCUAG,-4.12 ± 0.23,-2.81 ± 0.22
AACUAGCAAUAUUACGCUCU,-0.509 ± 0.12,0.627 ± 0.11
AACUAGCAAUAUUACGCUGC,-2.59 ± 0.14,-2.29 ± 0.18
AACUAGCAAUAUUACGGAAU,-2.42 ± 0.1,-1.83 ± 0.14
AACUAGCAAUAUUACGGACC,-0.676 ± 0.071,-0.0449 ± 0.11
AACUAGCAAUAUUACGGCGA,-0.842 ± 0.1,-0.155 ± 0.13
AACUAGCAAUAUUACGGCUC,-0.662 ± 0.1,-0.155 ± 0.11
AACUAGCAAUAUUACGGGGA,-1.3 ± 0.12,-0.982 ± 0.13
AACUAGCAAUAUUACGGGUC,-1.88 ± 0.24,-1.78 ± 0.22
AACUAGCAAUAUUACGUCAC,-2.87 ± 0.18,
